This assay deals with recombinant Roy1–Skp1 complex (S. cerevisiae, UniProt Q04847 1-553; P52286 1-194). Briefly: pull-down.
Sequence of recombinant Roy1–Skp1 complex (Q04847 whole entry, chain 1 of 2): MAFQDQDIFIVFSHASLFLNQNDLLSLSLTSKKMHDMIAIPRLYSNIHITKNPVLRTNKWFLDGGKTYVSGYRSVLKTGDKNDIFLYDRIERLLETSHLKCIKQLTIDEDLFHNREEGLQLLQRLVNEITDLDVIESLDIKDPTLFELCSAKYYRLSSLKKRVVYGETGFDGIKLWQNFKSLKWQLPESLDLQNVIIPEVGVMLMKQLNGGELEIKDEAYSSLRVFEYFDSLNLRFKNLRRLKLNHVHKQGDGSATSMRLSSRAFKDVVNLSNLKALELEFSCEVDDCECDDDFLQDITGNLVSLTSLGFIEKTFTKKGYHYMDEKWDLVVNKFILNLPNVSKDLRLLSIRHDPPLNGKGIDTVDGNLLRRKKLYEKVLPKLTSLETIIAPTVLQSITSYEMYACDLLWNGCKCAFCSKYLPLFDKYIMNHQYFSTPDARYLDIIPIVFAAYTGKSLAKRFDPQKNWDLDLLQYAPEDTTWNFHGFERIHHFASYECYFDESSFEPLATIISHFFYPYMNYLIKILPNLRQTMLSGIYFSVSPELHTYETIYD
Sequence of recombinant Roy1–Skp1 complex (P52286 whole entry, chain 2 of 2): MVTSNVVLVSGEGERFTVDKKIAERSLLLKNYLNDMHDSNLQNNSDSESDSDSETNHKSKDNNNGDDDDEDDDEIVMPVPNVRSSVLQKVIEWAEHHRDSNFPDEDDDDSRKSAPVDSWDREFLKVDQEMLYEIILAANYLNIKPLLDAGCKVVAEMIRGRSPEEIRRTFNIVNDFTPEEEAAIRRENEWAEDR

B1: GST-Ypt52 (natural protein, S. cerevisiae, UniProt P36018 1-234, looked up)
chain: MLQFKLVLLGDSSVGKSSIVHRFVKDTFDELRESTIGAAFLSQSITIHPNDGNETKDVVIKFEIWDTAGQERYKSLAPMYYRNANAALVVYDITQEDSLQKARNWVDELKNKVGDDDLVIYLLGNKVDLCQETPSTETSPDSNEGGDEEQKVRAISTEEAKQYAQEQGLLFREVSAKTGEGVKEIFQDIGEKLYDLKKDEILSKQNRQIGGGNNGQVDINLQRPSTNDPTSCCS
For the molecule B1, the binding result is on record as “binds”.

(Values after publication PMC3084679 (Molecular Biology of the Cell, 2011).)
